# Measured values from patent US20150337049A1 (Genmab, published 2015).
# Residue numbers refer to the chain shown, from its start. In names and notes the source's numbering stands.
# B1: bsIgG1-CD3×HER2-LFLEDA (IgG1-huCLB-T3/4×HER2-169 with L234F/L235E/D265A) (bispecific antibody)
# heavy 1: EVQLVESGGGLVKPGGSLRLSCAASGFTFSSYGMFWVRQAPGKGLEWVATISRYSRYIYYPDSVKGRFTISRDNAKNSLYLQMNSLRAEDTAVYYCARRPLYGSSPDYWGQGTLVTVSSASTKGPSVFPLAPSSKSTSGGTAALGCLVKDYFPEPVTVSWNSGALTSGVHTFPAVLQSSGLYSLSSVVTVPSSSLGTQTYICNVNHKPSNTKVDKRVEPKSCDKTHTCPPCPAPEFEGGPSVFLFPPKPKDTLMISRTPEVTCVVVAVSHEDPEVKFNWYVDGVEVHNAKTKPREEQYNSTYRVVSVLTVLHQDWLNGKEYKCKVSNKALPAPIEKTISKAKGQPREPQVYTLPPSREEMTKNQVSLTCLVKGFYPSDIAVEWESNGQPENNYKTTPPVLDSDGSFLLYSKLTVDKSRWQQGNVFSCSVMHEALHNHYTQKSLSLSPGK
# VL 1: EIVLTQSPATLSLSPGERATLSCSASSSVTYVHWYQQKPGQAPRLLIYDTSKLASGIPARFSGSGSGTDFTLTISSLEPEDFAVYYCFQGSGYPLTFGSGTKLEMR
# heavy 2: QVQLVQSGAEVKKPGASVKVSCKASGYTFTNYGISWVRQAPGQGLEWMGWLSAYSGNTIYAQKLQGRVTMTTDTSTTTAYMELRSLRSDDTAVYYCARDRIVVRPDYFDYWGQGTLVTVSSASTKGPSVFPLAPSSKSTSGGTAALGCLVKDYFPEPVTVSWNSGALTSGVHTFPAVLQSSGLYSLSSVVTVPSSSLGTQTYICNVNHKPSNTKVDKRVEPKSCDKTHTCPPCPAPEFEGGPSVFLFPPKPKDTLMISRTPEVTCVVVAVSHEDPEVKFNWYVDGVEVHNAKTKPREEQYNSTYRVVSVLTVLHQDWLNGKEYKCKVSNKALPAPIEKTISKAKGQPREPQVYTLPPSREEMTKNQVSLTCLVKGFYPSDIAVEWESNGQPENNYKTTPPVLDSDGSFFLYSRLTVDKSRWQQGNVFSCSVMHEALHNHYTQKSLSLSPGK
# VL 2: EIVLTQSPATLSLSPGERATLSCRASQSVSSYLAWYQQKPGQAPRLLIYDASNRATGIPARFSGSGSGTDFTLTISSLEPEDFAVYYCQQRSNWPRTFGQGTKVEIK
# notes: also called huCLB-T3/4×HER2-LFLEDA; copies: 1 + 1 + 1 + 1
# B2: bsIgG1-CD3×HER2-LFLEPS (IgG1-huCLB-T3/4×HER2-169 with L234F/L235E/P331S) (bispecific antibody)
# heavy 1: B1 heavy 1 with A267D, P333S
# VL 1: B1 VL 1
# heavy 2: B1 heavy 2 with A269D, P335S
# VL 2: B1 VL 2
# B3: bsIgG1-CD3×HER2-LFLENQ (IgG1-huCLB-T3/4×HER2-169 with L234F/L235E/N297Q) (bispecific antibody)
# heavy 1: B1 heavy 1 with A267D, N299Q
# VL 1: B1 VL 1
# heavy 2: B1 heavy 2 with A269D, N301Q
# VL 2: B1 VL 2
# B4: bsIgG1-CD3×HER2-N297Q (IgG1-huCLB-T3/4×HER2-169 with N297Q) (bispecific antibody)
# heavy 1: not shown
# VL 1: B1 VL 1
# heavy 2: not shown
# VL 2: B1 VL 2
# notes: also called NQ
# B5: bsIgG1-CD3×HER2-… (IgG1-huCLB-T3/4×HER2-169 with L234F/L235E/D265A/N297Q/P331S) (bispecific antibody)
# heavy 1: B1 heavy 1 with N299Q, P333S
# VL 1: B1 VL 1
# heavy 2: B1 heavy 2 with N301Q, P335S
# VL 2: B1 VL 2
# Biological target: T1, C1q (from 3% pooled human serum) (human, UniProt P02745 23-245; P02746 28-253; P02747 29-245)
# T1 construct: Native C1q of pooled human serum, detected with rabbit anti-human C1q
# Assay: ELISA, antibody coated, 3% pooled human serum, anti-C1q detection
# Protocol: Plates were washed and blocked with PBS supplemented with 0.025% Tween 20 and 0.1% gelatine. […] Detection was performed by addition of 1 mg/mL 2,2′-azino-bis(3-ethylbenzothiazoline-6-sulfonic acid) (ABTS; Roche, Mannheim, Germany) for about 30 min. The reaction was stopped by the addition of 100 μL 2% oxalic acid. Absorbance was measured at 405 nm in a microplate reader (Biotek, Winooski, Vt.). Log transformed data were analyzed by fitting sigmoidal dose-response curves with variable slope using GraphPad Prism software.
row,Binder,binding result
1,B1,no binding (tested: coated at 7-30000 ng/mL)
2,B2,no binding (tested: coated at 7-30000 ng/mL)
3,B3,no binding (tested: coated at 7-30000 ng/mL)
4,B4,no binding (tested: coated at 7-30000 ng/mL)
5,B5,no binding (tested: coated at 7-30000 ng/mL)

# Biological target: T2, HER2 on HER2-positive AU565 cells (human, UniProt P04626 23-1255)
# T2 construct: whole, on cells
# Assay: FACS, AU565 cells
# Protocol: Cells (1×10^5 cells/well) were incubated in polystyrene 96-well round-bottom plates (Greiner bio-one 650101) with serial dilutions of antibody preparations (range 2 to 10000 ng/mL in 4-fold dilutions for Jurkat cells and range 1 to 3000 ng/mL in 4-fold dilutions for on AU565 cells) in 100 μL PBS/0.1% BSA/0.02% azide at 4° C. for 30 min.
# After washing twice in PBS/0.1% BSA/0.02% azide, cells were incubated in 100 μL with secondary antibody at 4° C. for 30 min. As a secondary antibody, R-Phycoerythrin (PE)-conjugated goat-anti-human IgG F(ab′)₂ (109-116-098, Jackson ImmunoResearch Laboratories, Inc., West Grove, Pa.) diluted 1/100 in PBS/0.1% BSA/0.02% azide, was used for all experiments. Next, cells were washed twice in PBS/0.1% BSA/0.02% azide, resuspended in 150 μL PBS/0.1% BSA/0.02% azide and analyzed on a FACS CantoII (BD Biosciences). Binding curves were analyzed using non-linear regression (sigmoidal dose-response with variable slope) using GraphPad Prism V5.04 software (GraphPad Software, San Diego, Calif., USA).
row,binding result,Binder
1,binds,B1
2,binds,B2
3,binds,B3
4,binds,B4
5,binds,B5
